Test [1] addresses T1, fibronectin modules (F3(1-2)) of NCAM (Rattus norvegicus, UniProt P13596).
T1 construct: amino acids 507-611 and 507-705 of NCAM (SwissProt p13596), respectively; made in house; host or cells: Pichia pastoris KM71
Briefly: Binding of FGFR1-Ig2 derived peptides to immobilized fibronectin modules (F3(1-2)) of NCAM. Particulars: FIG. 5 and FIG. 6. On the procedure:
(§1) Immobilization of the NCAM and FGFR modules and binding analysis were performed using a BIAcore2000 instrument (Biosensor AB, Sweden) at 25° C. using 10 mM sodium phosphate containing 150 mM NaCl (pH 7.4) as running buffer. Data were analyzed by nonlinear curve fitting using the manufacturer's software. The FGFR Ig module 2 and NCAM F3 modules 1-2 were immobilized on sensor chip CM5 using an amine coupling kit (Biosensor AB) as follows: the chip was activated by 20 μl activation solution; the protein was immobilized using 12 μl of 20 μg/ml protein in 10 mM sodium acetate buffer (pH 6.0); the chip was blocked by 35 μl blocking solution. The curves corresponding to the difference between binding to ligand (immobilized molecule) and a blank chip were used for analysis.

Test [2] deals with T2, FGFR Ig2-NCAM F3(1-2) binding (Mus musculus, UniProt P16092).
T2 construct: AGHHHHHH and amino acids 140-251 of FGFR (SwissProt p16092); made in house; host or cells: Pichia pastoris KM71
T2 sequence (P16092 140-251): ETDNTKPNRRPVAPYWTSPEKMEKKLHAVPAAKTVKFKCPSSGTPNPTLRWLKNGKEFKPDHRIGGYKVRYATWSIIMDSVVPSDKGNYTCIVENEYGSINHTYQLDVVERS
Briefly: SPR analysis of inhibition of FGFR Ig2-NCAM F3(1-2) binding. Also on record: species or system mouse FGFR1, rat NCAM. Conditions: 20 μM Ig2 module of FGFR, indicated concentrations of SOS; FIG. 4. As to the method: as §1, with “The binding of 20 μM Ig2 module of FGFR to the immobilized NCAM F3 modules 1-2 was performed using indicated concentrations of SOS. The experiment was repeated 9 times. Immobilization” for “Immobilization”, “analysis. One of the identified clusters (the first one) is located in the close vicinity of the sites in Ig2 for binding of FGF, heparin and Ig2 (FIG. 3) (Plotnikov et al., 1999; Pellegrini et al., 2000). […] To verify this assumption, we tested sucrose octasulphate (SOS), a well-known heparin analogue, for its ability to inhibit binding of soluble Ig2 to the immobilized NCAM F3 modules.” for “analysis.”
For orientation: SPR reads the build-up and loss of mass on a sensor chip optically.

The target in a further test is T3, NCAM F3 modules 1-2 (Rattus norvegicus, UniProt P13596).
T3 construct: amino acids 507-611 and 507-705 of NCAM (SwissProt p13596), respectively; made in house; host or cells: Pichia pastoris KM71
Briefly: SPR binding of soluble FGFR Ig2 module to immobilized NCAM F3 modules 1-2. Conditions: 25° C., pH 7.4, FIG. 1A, estimated. From the text:
(§2) To study the binding properties between the FGFR Ig2 module and NCAM, we used recombinant proteins of the NCAM F3 modules 1-2 and the FGFR1 Ig2 module. Both proteins were properly folded as judged by one-dimensional NMR.
(§3) The Ig2 module of mouse FGFR1 (IIIc isoform) and rat NCAM F3 modules 1-2 were produced. Both proteins were expressed in a KM71 strain of yeast expression system of P. pastoris (Invitrogen, USA). The FGFR Ig module 2 consists of AGHHHHHH and amino acids 140-251 of FGFR (SwissProt p16092) and the combined F3 modules 1 and 2 consist of AGHHHHHH and amino acids 507-611 and 507-705 of NCAM (SwissProt p13596), respectively. For the protein expression the following media were used: BMGH (0.1 M potassium phosphate pH 6.0, 3.4 g/L yeast nitrogen base (without amino acids and ammonium sulphate), 10 g/L ammonium sulphate, 400 μg/L D-biotin, 60 mg/L L-histidine, 2% glycerol) and BMMH (0.1 M potassium phosphate pH 6.0, 3.4 g/L yeast nitrogen base (without amino acids and ammonium sulphate), 10 g/L ammonium sulphate, 400 μg/L D-biotin, 60 mg/L L-histidine, 1% methanol). […]
(§4) Immobilization of the NCAM and FGFR modules and binding analysis were performed using a BIAcore2000 instrument (Biosensor AB, Sweden) at 25° C. using 10 mM sodium phosphate containing 150 mM NaCl (pH 7.4) as running buffer. Data were analyzed by nonlinear curve fitting using the manufacturer's software. […]

Another test addresses T4, FGFR1 Ig2 module (Mus musculus, UniProt P16092).
T4 construct: AGHHHHHH and amino acids 140-251 of FGFR (SwissProt p16092); made in house; host or cells: Pichia pastoris KM71
T4 sequence (P16092 140-251): T2 sequence (P16092 140-251)
In words: SPR binding of soluble NCAM F3 modules 1-2 to immobilized FGFR Ig2 module. Particulars: 25° C., pH 7.4, FIG. 1B, estimated.
Text: as §2, §3, §4

Another test has as its target T5, FGFR Ig2-Ig3 construct (Mus musculus, UniProt P16092).
T5 construct: the double-module FGFR Ig2-Ig3 construct
T5 sequence (P16092 141-365 limits assumed): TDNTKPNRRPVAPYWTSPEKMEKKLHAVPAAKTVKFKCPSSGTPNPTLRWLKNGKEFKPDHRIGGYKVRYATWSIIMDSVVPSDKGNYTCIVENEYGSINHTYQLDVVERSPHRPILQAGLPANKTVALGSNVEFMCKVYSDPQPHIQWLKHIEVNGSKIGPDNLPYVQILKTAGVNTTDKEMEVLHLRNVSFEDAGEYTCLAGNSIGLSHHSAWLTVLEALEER
Conditions: SPR; Kiselyov et al., 2003; read-out: dissociation constant (Kd), NCAM F3 modules 1-2 binding to FGFR Ig2-Ig3 construct; cited from earlier work.

Entries after “also recorded” stand apart in the source; their conditions may differ.

On to “RWLKNGKEFK (Derived from FGFR) [SEQ ID NO:3, FGFR1-Ig2 derived peptide (amino acids 189-198)]”, for which, in test [1], the “binding to the immobilized fibronectin modules (F3(1-2)) of NCAM” value is “binding”. Regarding `O=S(=O)(O)OC[C@H]1O[C@@](COS(=O)(=O)O)(O[C@H]2O[C@H](COS(=O)(=O)O)[C@@H](OS(=O)(=O)O)[C@H](OS(=O)(=O)O)[C@H]2OS(=O)(=O)O)[C@@H](OS(=O)(=O)O)[C@@H]1OS(=O)(=O)O` [SOS, sucrose octasulphate], the “inhibition of binding of soluble Ig2 to the immobilized NCAM F3 modules” value in test [2] is on record as “capable of inhibiting; also recorded: inhibitory effect”. For “AKTVKFK (Derived from FGFR) [SEQ ID NO:2, FGFR1-Ig2 derived peptide (amino acids 171-177)]”, in test [1], the “binding to the immobilized fibronectin modules (F3(1-2)) of NCAM” value is “binding”.

B1: FGFR Ig2 module: recombinant Ig2 module of mouse FGFR1 (IIIc isoform): AGHHHHHH and amino acids 140-251 of FGFR (SwissProt p16092) (protein)
chain: AGHHHHHHETDNTKPNRRPVAPYWTSPEKMEKKLHAVPAAKTVKFKCPSSGTPNPTLRWLKNGKEFKPDHRIGGYKVRYATWSIIMDSVVPSDKGNYTCIVENEYGSINHTYQLDVVERS
A word on the Kd: it is the concentration at which binding is half-saturated. For B1, the Kd with NCAM F3 modules 1-2 was 35 µM.

B2: NCAM F3 modules 1-2: recombinant rat NCAM fibronectin type III modules 1-2 with AGHHHHHH tag (SwissProt p13596) (protein)
chain: AGHHHHHHQADTPSSPSIDRVEPYSSTAQVQFDEPEATGGVPILKYKAEWKSLGEEAWHSKWYDAKEANMEGIVTIMGLKPETRYAVRLAALNGKGLGEISAATEFKTQPVREPSAPKLEGQMGEDGNSIKVNLIKQDDGGSPIRHYLVKYRALASEWKPEIRLPSGSDHVMLKSLDWNAEYEVYVVAENQQGKSKAAHFVFRTSAQ
Take B2: the Kd with FGFR1 Ig2 module was 12 µM; with FGFR Ig2-Ig3 construct, 10 µM.
